Experimental data reported in US6787341B2, “Pharmacological targeting of bacterial DNA ligase for treatment and prevention of bacterial infections” (priority 2001, dated 2004).

Experiments:
E. coli LigA [1] = assay type: biochemical; conditions: for rate of ligase adenylation (kinetic pattern): 1 μM [32P-AMP]NAD+, 15-120 s; for ligase adenylation (ligase-AMP formation) with NAD+: qualitative
Description: (§1) FIG. 12A: Aliquots (5 μg) of wild-type (WT) E. coli ligase, N-terminal deletion mutants NΔ38 and NΔ78, and the full-length ligase proteins containing the indicated alanine mutations in domain Ia were analyzed by SDS-PAGE. A Coomassie blue-stained gel is shown. FIG. 12B: Ligase adenylation reaction mixtures (20 μl) containing 50 mM Tris-HCl (pH 7.5), 5 mM DTT, 5 mM MgCl2, 1 μM [α-^32P]NAD^+ and 8 pmol of WT ligase, NΔ38, NΔ78, or the indicated alanine mutants were incubated for 5 min at 37° C. The reaction products were resolved by SDS-PAGE and visualized by autoradiography. FIG. 12C: Nick joining reaction mixtures (20 μl) containing 50 mM Tris-HCl (pH 7.5), 10 mM (NH4)2SO4, 5 mM DTT, 5 mM MgCl2, 20 μM NAD^+, 1 pmol of ^32P-labeled nicked DNA, and increasing amounts of WT ligase or the indicated alanine mutants were incubated for 10 min at 22° C. The extents of ligation are plotted as a function of input protein.
FIG. 15A: Aliquots (5 μg) of wild-type (WT) E. coli ligase and proteins containing the indicated mutations in domain Ia were analyzed by SDS-PAGE. The Coomassie blue-stained gel is shown. The positions and sizes (in kDa) of marker proteins are indicated on the left. FIG. 15B: Ligase adenylation reaction mixtures (20 μl) containing 50 mM Tris-HCl (pH 7.5), 5 mM DTT, 5 mM MgCl2, 1 μM [α-^32P]NAD^+ and 8 pmol of WT ligase or the indicated mutants were incubated for 5 min at 37° C. The reaction products were resolved by SDS-PAGE and visualized by autoradiography.
Reaction mixtures containing (per 20 μl) 50 mM Tris-HCl (pH 7.5), 5 mM DTT, 5 mM MgCl2, 1 μM [^32P-AMP]NAD^+ and 8 pmol of ligase were incubated at 22° C. Aliquots (20 μl) were withdrawn at 15, 30, 60 and 120 s and then quenched immediately with SDS. The products were analyzed by SDS-PAGE. Formation of the ligase-[^32P]AMP adduct is plotted as a function of time.
The first step in DNA ligation involves formation of a covalent enzyme-adenylate intermediate.

E. coli LigA [2] = assay type: biochemical; conditions: specific activity by protein titration under steady-state conditions, normalized to wild-type ligase
Description: as §1
To further probe the role of domain Ia in NAD^+ recognition and nucleotidyl transfer, single alanine substitutions were introduced at six positions in the Ia domain of E. coli LigA. The six mutated Eco ligase residues—Glu10, Tyr22, His23, Asp32, Tyr35, and Asp36—correspond to the six residues that were subjected to alanine scanning mutagenesis in AmEPV ligase (FIG. 11). […] The conserved positions are denoted by shaded boxes in FIG. 11. The Eco ligase mutants E10A, Y22A, H23A, D32A, Y35A, and D36A were produced in E. coli and purified by Ni-agarose chromatography in parallel with wild-type ligase (FIG. 12A).
To evaluate the roles of charge, hydrogen bonding potential, and steric constraints in the functions of the domain Ia residues implicated in the step 1 reaction with NAD^+, the effects of conservative substitutions were tested. Tyr22 and Tyr35 were replaced by Phe and Ser, His23 was changed to Tyr, and Asp32 and Asp36 were mutated to Glu and Asn. The recombinant mutant ligases were purified from soluble bacterial extracts by Ni-agarose chromatography (FIG. 15A). The specific activity of each mutant was determined under steady-state conditions by protein titration and normalized to the specific activity of wild-type ligase.

| Molecule | rate of ligase adenylation (kinetic pattern) (E. coli LigA [1]) | ligase adenylation (ligase-AMP formation) with NAD+ (E. coli LigA [1]) | Nick Joining Activity (% of WT) (E. coli LigA [2]) |
| --- | --- | --- | --- |
| Y22F: E. coli LigA with Tyr22 replaced by Phe (protein, UniProt P15042 1-671, looked up, variant Y22F) DNA ligase: MESIEQQLTELRTTLRHHEYLFHVMDAPEIPDAEYDRLMRELRELETKHPELITPDSPTQRVGAAPLAAFSQIRHEVPMLSLDNVFDEESFLAFNKRVQDRLKNNEKVTWCCELKLDGLAVSILYENGVLVSAATRGDGTTGEDITSNVRTIRAIPLKLHGENIPARLEVRGEVFLPQAGFEKINEDARRTGGKVFANPRNAAAGSLRQLDPRITAKRPLTFFCYGVGVLEGGELPDTHLGRLLQFKKWGLPVSDRVTLCESAEEVLAFYHKVEEDRPTLGFDIDGVVIKVNSLAQQEQLGFVARAPRWAVAFKFPAQEQMTFVRDVEFQVGRTGAITPVARLEPVHVAGVLVSNATLHNADEIERLGLRIGDKVVIRRAGDVIPQVVNVVLSERPEDTREVVFPTHCPVCGSDVERVEGEAVARCTGGLICGAQRKESLKHFVSRRAMDVDGMGDKIIDQLVEKEYVHTPADLFKLTAGKLTGLERMGPKSAQNVVNALEKAKETTFARFLYALGIREVGEATAAGLAAYFGTLEALEAASIEELQKVPDVGIVVASHVHNFFAEESNRNVISELLAEGVHWPAPIVINAEEIDSPFAGKTVVLTGSLSQMSRDDAKARLVELGAKVAGSVSKKTDLVIAGEAAGSKLAKAQELGIEVIDEAEMLRLLGS | reacted slowly | weakly active | 9 % of WT |
| H23Y: E. coli LigA with His23 changed to Tyr (protein, UniProt P15042 1-671, looked up, variant H23Y) DNA ligase: MESIEQQLTELRTTLRHHEYLYYVMDAPEIPDAEYDRLMRELRELETKHPELITPDSPTQRVGAAPLAAFSQIRHEVPMLSLDNVFDEESFLAFNKRVQDRLKNNEKVTWCCELKLDGLAVSILYENGVLVSAATRGDGTTGEDITSNVRTIRAIPLKLHGENIPARLEVRGEVFLPQAGFEKINEDARRTGGKVFANPRNAAAGSLRQLDPRITAKRPLTFFCYGVGVLEGGELPDTHLGRLLQFKKWGLPVSDRVTLCESAEEVLAFYHKVEEDRPTLGFDIDGVVIKVNSLAQQEQLGFVARAPRWAVAFKFPAQEQMTFVRDVEFQVGRTGAITPVARLEPVHVAGVLVSNATLHNADEIERLGLRIGDKVVIRRAGDVIPQVVNVVLSERPEDTREVVFPTHCPVCGSDVERVEGEAVARCTGGLICGAQRKESLKHFVSRRAMDVDGMGDKIIDQLVEKEYVHTPADLFKLTAGKLTGLERMGPKSAQNVVNALEKAKETTFARFLYALGIREVGEATAAGLAAYFGTLEALEAASIEELQKVPDVGIVVASHVHNFFAEESNRNVISELLAEGVHWPAPIVINAEEIDSPFAGKTVVLTGSLSQMSRDDAKARLVELGAKVAGSVSKKTDLVIAGEAAGSKLAKAQELGIEVIDEAEMLRLLGS |  | restored the yield of ligase-AMP adduct to the wild-type level | 88 % of WT |
| Y35S: E. coli LigA with Tyr35 replaced by Ser (protein, UniProt P15042 1-671, looked up, variant Y35S) DNA ligase: MESIEQQLTELRTTLRHHEYLYHVMDAPEIPDAESDRLMRELRELETKHPELITPDSPTQRVGAAPLAAFSQIRHEVPMLSLDNVFDEESFLAFNKRVQDRLKNNEKVTWCCELKLDGLAVSILYENGVLVSAATRGDGTTGEDITSNVRTIRAIPLKLHGENIPARLEVRGEVFLPQAGFEKINEDARRTGGKVFANPRNAAAGSLRQLDPRITAKRPLTFFCYGVGVLEGGELPDTHLGRLLQFKKWGLPVSDRVTLCESAEEVLAFYHKVEEDRPTLGFDIDGVVIKVNSLAQQEQLGFVARAPRWAVAFKFPAQEQMTFVRDVEFQVGRTGAITPVARLEPVHVAGVLVSNATLHNADEIERLGLRIGDKVVIRRAGDVIPQVVNVVLSERPEDTREVVFPTHCPVCGSDVERVEGEAVARCTGGLICGAQRKESLKHFVSRRAMDVDGMGDKIIDQLVEKEYVHTPADLFKLTAGKLTGLERMGPKSAQNVVNALEKAKETTFARFLYALGIREVGEATAAGLAAYFGTLEALEAASIEELQKVPDVGIVVASHVHNFFAEESNRNVISELLAEGVHWPAPIVINAEEIDSPFAGKTVVLTGSLSQMSRDDAKARLVELGAKVAGSVSKKTDLVIAGEAAGSKLAKAQELGIEVIDEAEMLRLLGS |  | apparently unreactive | <0.1 % of WT |
| Y35F: E. coli LigA with Tyr35 replaced by Phe (protein, UniProt P15042 1-671, looked up, variant Y35F) DNA ligase: MESIEQQLTELRTTLRHHEYLYHVMDAPEIPDAEFDRLMRELRELETKHPELITPDSPTQRVGAAPLAAFSQIRHEVPMLSLDNVFDEESFLAFNKRVQDRLKNNEKVTWCCELKLDGLAVSILYENGVLVSAATRGDGTTGEDITSNVRTIRAIPLKLHGENIPARLEVRGEVFLPQAGFEKINEDARRTGGKVFANPRNAAAGSLRQLDPRITAKRPLTFFCYGVGVLEGGELPDTHLGRLLQFKKWGLPVSDRVTLCESAEEVLAFYHKVEEDRPTLGFDIDGVVIKVNSLAQQEQLGFVARAPRWAVAFKFPAQEQMTFVRDVEFQVGRTGAITPVARLEPVHVAGVLVSNATLHNADEIERLGLRIGDKVVIRRAGDVIPQVVNVVLSERPEDTREVVFPTHCPVCGSDVERVEGEAVARCTGGLICGAQRKESLKHFVSRRAMDVDGMGDKIIDQLVEKEYVHTPADLFKLTAGKLTGLERMGPKSAQNVVNALEKAKETTFARFLYALGIREVGEATAAGLAAYFGTLEALEAASIEELQKVPDVGIVVASHVHNFFAEESNRNVISELLAEGVHWPAPIVINAEEIDSPFAGKTVVLTGSLSQMSRDDAKARLVELGAKVAGSVSKKTDLVIAGEAAGSKLAKAQELGIEVIDEAEMLRLLGS | faster than Y35A | restored adenylation activity | 23 % of WT |
| Y22S: E. coli LigA with Tyr22 replaced by Ser (protein, UniProt P15042 1-671, looked up, variant Y22S) DNA ligase: MESIEQQLTELRTTLRHHEYLSHVMDAPEIPDAEYDRLMRELRELETKHPELITPDSPTQRVGAAPLAAFSQIRHEVPMLSLDNVFDEESFLAFNKRVQDRLKNNEKVTWCCELKLDGLAVSILYENGVLVSAATRGDGTTGEDITSNVRTIRAIPLKLHGENIPARLEVRGEVFLPQAGFEKINEDARRTGGKVFANPRNAAAGSLRQLDPRITAKRPLTFFCYGVGVLEGGELPDTHLGRLLQFKKWGLPVSDRVTLCESAEEVLAFYHKVEEDRPTLGFDIDGVVIKVNSLAQQEQLGFVARAPRWAVAFKFPAQEQMTFVRDVEFQVGRTGAITPVARLEPVHVAGVLVSNATLHNADEIERLGLRIGDKVVIRRAGDVIPQVVNVVLSERPEDTREVVFPTHCPVCGSDVERVEGEAVARCTGGLICGAQRKESLKHFVSRRAMDVDGMGDKIIDQLVEKEYVHTPADLFKLTAGKLTGLERMGPKSAQNVVNALEKAKETTFARFLYALGIREVGEATAAGLAAYFGTLEALEAASIEELQKVPDVGIVVASHVHNFFAEESNRNVISELLAEGVHWPAPIVINAEEIDSPFAGKTVVLTGSLSQMSRDDAKARLVELGAKVAGSVSKKTDLVIAGEAAGSKLAKAQELGIEVIDEAEMLRLLGS |  | virtually inert | 0.2 % of WT |
